Test results: patent US20250090695A1, “IMMUNOSTIMULANT-CYTOTOXIC CONJUGATE COMPOSITION AND METHODS FOR CANCER TREATMENT” (The Research Foundation for the State University of New York, priority 2022, published 2025)

Tests used:
[1] = OLINDA dosimetry to adult male from mouse biodistribution
in vivo = conditions: C57BL/6J, mouse, total radioactivity
[2] = Biodistribution Blood (% ID/g ± SD)
[3] = Biodistribution Bone (% ID/g ± SD)
[4] = Biodistribution Heart (% ID/g ± SD)
[5] = Biodistribution Kidney (% ID/g ± SD)
[6] = Biodistribution Liver (% ID/g ± SD)
[7] = Biodistribution Muscle (% ID/g ± SD)
[8] = Biodistribution RM1-PGLS tumor (% ID/g ± SD)
[9] = Biodistribution Sm Int (% ID/g ± SD)
[10] = Biodistribution Spleen (% ID/g ± SD)

SMILES: CCCCc1nc2c(N)nc3ccccc3c2n1Cc1ccc(CNC(=O)OCc2ccc(NC(=O)[C@H](C)NC(=O)[C@@H](NC(=O)CCCCC(=O)N[C@@H](CCCCNC(=O)CN3CCN(CC(=O)O)CCN(CC(=O)O)CCN(CC(=O)O)CC3)C(=O)NC[C@H]3CC[C@H](C(=O)N[C@@H](Cc4ccc5ccccc5c4)C(=O)NCCCC[C@H](NC(=O)N[C@@H](CCC(=O)O)C(=O)O)C(=O)O)CC3)C(C)C)cc2)cc1 [^177Lu-RIMS-1, metal not drawn]
- OLINDA dosimetry to Adult Male, Esophagus ([1]; Target Organ Esophagus): 2.03 μSv/MBq
- OLINDA dosimetry to Adult Male, Eyes ([1]; Target Organ Eyes): 0.02 μSv/MBq
- OLINDA dosimetry to Adult Male, Gallbladder Wall ([1]; Target Organ Gallbladder Wall): 7.09 μSv/MBq
- OLINDA dosimetry to Adult Male, Heart Wall ([1]; Target Organ Heart Wall): 16.60 μSv/MBq
- OLINDA dosimetry to Adult Male, Kidneys ([1]; Target Organ Kidneys): 262.00 μSv/MBq
- OLINDA dosimetry to Adult Male, Left Colon ([1]; Target Organ Left Colon): 1.26 μSv/MBq
- OLINDA dosimetry to Adult Male, Liver ([1]; Target Organ Liver): 219.00 μSv/MBq
- OLINDA dosimetry to Adult Male, Lungs ([1]; Target Organ Lungs): 15.10 μSv/MBq
- OLINDA dosimetry to Adult Male, Osteogenic Cells ([1]; Target Organ Osteogenic Cells): 3.70 μSv/MBq
- OLINDA dosimetry to Adult Male, Pancreas ([1]; Target Organ Pancreas): 2.49 μSv/MBq
- OLINDA dosimetry to Adult Male, Prostate ([1]; Target Organ Prostate): 0.34 μSv/MBq
- OLINDA dosimetry to Adult Male, Rectum ([1]; Target Organ Rectum): 0.25 μSv/MBq
- OLINDA dosimetry to Adult Male, Red Marrow ([1]; Target Organ Red Marrow): 1.39 μSv/MBq
- OLINDA dosimetry to Adult Male, Right Colon ([1]; Target Organ Right Colon): 1.94 μSv/MBq
- OLINDA dosimetry to Adult Male, Salivary Glands ([1]; Target Organ Salivary Glands): 0.05 μSv/MBq
- OLINDA dosimetry to Adult Male, Small Intestine ([1]; Target Organ Small Intestine): 3.60 μSv/MBq
- OLINDA dosimetry to Adult Male, Spleen ([1]; Target Organ Spleen): 228.00 μSv/MBq
- OLINDA dosimetry to Adult Male, Stomach Wall ([1]; Target Organ Stomach Wall): 2.02 μSv/MBq
- OLINDA dosimetry to Adult Male, Thymus ([1]; Target Organ Thymus): 0.95 μSv/MBq
- OLINDA dosimetry to Adult Male, Thyroid ([1]; Target Organ Thyroid): 0.36 μSv/MBq
- OLINDA dosimetry to Adult Male, Today Body ([1]; Target Organ Total Body): 7.73 μSv/MBq
- OLINDA dosimetry to Adult Male, Tumor ([1]; Target Organ Tumor): 237.00 μSv/MBq
- OLINDA dosimetry to Adult Male, Urinary Bladder Wall ([1]; Target Organ Urinary Bladder Wall): 10.90 μSv/MBq
- tissue uptake at 2 h (in vivo; [2]): 2.28 ± 0.29 %ID/g
- tissue uptake at 24 h (in vivo; [2]): 0.11 ± 0.01 %ID/g
- tissue uptake at 72 h (in vivo; [2]): 0.2 %ID/g
- tissue uptake at 2 h (in vivo; [3]): 1.03 ± 0.43 %ID/g
- tissue uptake at 24 h (in vivo; [3]): 0.24 ± 0.1 %ID/g
- tissue uptake at 72 h (in vivo; [3]): 0.14 ± 0.02 %ID/g
- tissue uptake at 2 h (in vivo; [4]): 0.83 ± 0.09 %ID/g
- tissue uptake at 24 h (in vivo; [4]): 0.13 ± 0.11 %ID/g
- tissue uptake at 72 h (in vivo; [4]): 0.03 ± 0.01 %ID/g
- tissue uptake at 2 h (in vivo; [5]): 15.3 ± 3.61 %ID/g
- tissue uptake at 24 h (in vivo; [5]): 5.03 ± 2.2 %ID/g
- tissue uptake at 72 h (in vivo; [5]): 1.66 ± 0.37 %ID/g
- tissue uptake at 2 h (in vivo; [6]): 23.4 ± 6.93 %ID/g
- tissue uptake at 24 h (in vivo; [6]): 8.69 ± 1.53 %ID/g
- tissue uptake at 72 h (in vivo; [6]): 7.28 ± 1.06 %ID/g
- tissue uptake at 2 h (in vivo; [7]): 0.27 ± 0.08 %ID/g
- tissue uptake at 24 h (in vivo; [7]): 0.04 ± 0.03 %ID/g
- tissue uptake at 72 h (in vivo; [7]): 0.02 ± 0.01 %ID/g
- tissue uptake at 2 h (in vivo; [8]): 1.98 ± 0.37 %ID/g
- tissue uptake at 24 h (in vivo; [8]): 0.66 ± 0.24 %ID/g
- tissue uptake at 72 h (in vivo; [8]): 0.23 ± 0.06 %ID/g
- tissue uptake at 2 h (in vivo; [9]): 0.55 ± 0.3 %ID/g
- tissue uptake at 24 h (in vivo; [9]): 0.07 ± 0.02 %ID/g
- tissue uptake at 72 h (in vivo; [9]): 0.05 ± 0.01 %ID/g
- tissue uptake at 2 h (in vivo; [10]): 10.3 ± 2.96 %ID/g
- tissue uptake at 24 h (in vivo; [10]): 2.16 ± 0.73 %ID/g
- tissue uptake at 72 h (in vivo; [10]): 1.14 ± 0.36 %ID/g
